B1: scFv(Dac), scFv of the CD25-targeting monoclonal antibody daclizumab, purified as scFv-scFc-H6 fusion protein (Fc fusion)
VH: QVQLVQSGAEVKKPGSSVKVSCKASGYTFTSYRMHWVRQAPGQGLEWIGYINPSTGYTEYNQKFKDKATITADESTNTAYMELSSLRSEDTAVYYCARGGGVFDYWGQGTLVTVSS
VL: DIQMTQSPSTLSASVGDRVTITCSASSSISYMHWYQQKPGKAPKLLIYTTSNLASGVPARFSGSGSGTEFTLTISSLQPDDFATYYCHQRSTYPLTFGQGTKVEVK
notes: scFv of daclizumab; Control scFv; not shown: single-chain Fc (two human IgG1 Fc domains; residues 104-330 of UniProt P01857), C-terminal, kept; His6, C-terminal, kept
B2: scFv(Niv), scFv of PD-1 targeting nivolumab, purified as scFv-scFc-H6 fusion protein (Fc fusion)
VH: QVQLVESGGGVVQPGRSLRLDCKASGITFSNSGMHWVRQAPGKGLEWVAVIWYDGSKRYYADSVKGRFTISRDNSKNTLFLQMNSLRAEDTAVYYCATNDDYWGQGTLVTVSS
VL: EIVLTQSPATLSLSPGERATLSCRASQSVSSYLAWYQQKPGQAPRLLIYDASNRATGIPARFSGSGSGTDFTLTISSLEPEDFAVYYCQQSSNWPRTFGQGTKVEIK
notes: scFv of nivolumab; Control scFv; not shown: single-chain Fc (two human IgG1 Fc domains; residues 104-330 of UniProt P01857), C-terminal, kept; His6, C-terminal, kept

Target: T1, human epidermal growth factor receptor 2 (HER2) (Homo sapiens, UniProt P04626)
T1 construct: human HER2, cDNA expressed as HER2-T2A-mCherry; HER2 on the cell surface, mCherry intracellular after T2A self-cleavage; residues of it may stay on the C-terminus after self-cleavage (surmise); also called K562/HER2 cells; source: K562, lentiviral transduction with pCSII/HER2-mCherry, on the cell surface
Test: flow cytometry on cells; K562/HER2 cells incubated with 0.5-1600 nM purified scFv-scFc-H6 for 90 min at 4 °C, detected with AF488-conjugated anti-HisTag antibody; 3% FBS-PBS
Details: one partner purified

Binder	binding result
B1	no binding (tested: 1600 nM)
B2	no binding (tested: 1600 nM)
